Experiments:
[1] = molecular target: T1, SARS-CoV-2 receptor-binding domain (RBD) wild-type (WT) (SARS-CoV-2 (Wuhan, WT), UniProt P0DTC2); test: cell-based or functional assay
[2] = molecular target: T2, biotinylated RBD protein (SPD-C82E9, Acro Biosystems) (SARS-CoV-2 (WT), UniProt P0DTC2); test: bead-based flow cytometry (iQue3, Qbeads) competition assay; settings: both partners purified
T2 construct: also called Biotinylated RBD WT; RBD-Qbeads

[3] = molecular target: T1, SARS-CoV-2 receptor-binding domain …; test: bead-based flow cytometry (iQue3) blocking assay; settings: both partners purified
[4] = molecular target: T1, SARS-CoV-2 receptor-binding domain …; test: SPR; Biacore; antibodies captured on the chip (Protein A CM5 chip by the methods, anti-IgG antibody by the results), RBD WT flown over; 1:1 Langmuir fit; settings: both partners purified
[5] = molecular target: T2, biotinylated RBD protein (SPD-C82E9, …); test: bead-based flow cytometry (iQue3, Qbeads) competition assay; settings: both partners purified; remark: listed apart in the source
[6] = molecular target: T1, SARS-CoV-2 receptor-binding domain …; test: ELISA; binding ELISA of purified hIgG1 on RBD; EC50; settings: both partners purified
[7] = molecular target: T1, SARS-CoV-2 receptor-binding domain …; test: SPR; Biacore; antibodies captured on the chip (Protein A CM5 chip by the methods, anti-IgG antibody by the results), RBD WT flown over; 1:1 Langmuir fit; settings: both partners purified; remark: listed apart in the source
[8] = molecular target: T1, SARS-CoV-2 receptor-binding domain …; test: bead-based flow cytometry (iQue3) blocking assay; settings: both partners purified; remark: listed apart in the source

| Binder | PRNT: authentic SARS-CoV-2 on Vero E6 cells, NC50; pair blocked: RBD with hACE-2 [1] [nM] | IC50 [2] [nM] | IC50 [3] [nM] | Kd [4] [nM] | koff [4] [s⁻¹] | kon [4] [M⁻¹ s⁻¹] | IC50 [5] [nM] | EC50 [6] [nM] | Kd [7] [nM] | koff [7] [s⁻¹] | kon [7] [M⁻¹ s⁻¹] | IC50 [8] [nM] |
| --- | --- | --- | --- | --- | --- | --- | --- | --- | --- | --- | --- | --- |
| P5A10-G2 (hIgG1) (antibody, V domains shown) VH: EVQLLESGGGLVQPGGSLRLSCAASGFTSSNTWMSWVRQAPGKGLEWVSGIDGRGGSTYYADSVKGRFTISRDNSKNTLYLQMNSLRAEDTAVYYCATDSSTQPWYFDLWGRGTLVTVSS VL: EIVLTQSPATLSLSPGERATLSCRASQSVSSNLAWYQQKPGQAPRLLIYDASNRATGIPARFSGSGSGTDFTLTISSLEPEDFAVYYCQQREREPITFGQGTKVEIK | 61.1 | 1.23 | 1.18 | 0.39 | 0.000578 | 1.49e+06 |  |  |  |  |  |  |
| P5A10 (hIgG1) (antibody, V domains shown) VH: EVQLLESGGGLVQPGGSLRLSCAASGFTFSSSAMSWVRQAPGKGLEWVSGIYGRGGSTYYADSVKGRFTISRDNSKNTLYLQMNSLRAEDTAVYYCATDSSTQPWYFDLWGRGTLVTVSS VL: EIVLTQSPATLSLSPGERATLSCRASQSVSSNLAWYQQKPGQAPRLLIYDASNRATGIPARFSGSGSGTDFTLTISSLEPEDFAVYYCQQREREPITFGQGTKVEIK |  |  |  |  |  |  | 2.34 | 16.9 | 28.8 | 0.00367 | 127000 |  |
| P5A10-G4 (hIgG1) (antibody, V domains shown) VH: EVQLLESGGGLVQPGGSLRLSCAASGFTFSSYWMSWVRQAPGKGLEWVSGISGSGRRAFGGSTYYADSVKGRFTISRDNSKNTLYLQMNSLRAEDTAVYYCATDSSTQPWYFDLWGRGTLVTVSS VL: EIVLTQSPATLSLSPGERATLSCRASQSVSSNLAWYQQKPGQAPRLLIYDASNRATGIPARFSGSGSGTDFTLTISSLEPEDFAVYYCQQREREPITFGQGTKVEIK | 10.4 | 0.12 | 0.78 | 0.14 | 0.000148 | 1.09e+06 |  |  |  |  |  |  |
| P5E1 (hIgG1) (antibody, V domains shown) VH: EVQLLESGGGLVQPGGSLRLSCAASGFTFSDSAMSWVRQAPGKGLEWVSGIYGRGGYTYYADSVKGRFTISRDNSKNTLYLQMNSLRAEDTAVYYCARGGSWFDPWGQGTLVTVSS VL: not shown |  |  |  |  |  |  | 2.15 | 0.97 | 27.1 | 0.00433 | 160000 | 2.63 |
| P5E1-A6 (hIgG1) (antibody, V domains shown) VH: EVQLLESGGGLVQPGGSLRLSCAASGFTFTSTAMSWVRQAPGKGLEWVSGIYGRGSTRYADSVKGRFTISRDNSKNTLYLQMNSLRAEDTAVYYCARGGSWFDPWGQGTLVTVSS VL: not shown | 43.9 | 0.06 | 0.61 | 0.89 | 0.000527 | 588000 |  |  |  |  |  |  |

Source: publication PMC10003557 (International Journal of Molecular Sciences, 2023)
